The results in this text go back to patent US20200339648A1 (University of Washington, published 2020).

Test [1] concerns the target T1, mouse IL-2Rβγc on murine cells (CTLL-2 T cells, primary CD4+ T cells) (mouse, UniProt P16297 27-539; P34902 23-369).
T1 sequence (looked up) 1: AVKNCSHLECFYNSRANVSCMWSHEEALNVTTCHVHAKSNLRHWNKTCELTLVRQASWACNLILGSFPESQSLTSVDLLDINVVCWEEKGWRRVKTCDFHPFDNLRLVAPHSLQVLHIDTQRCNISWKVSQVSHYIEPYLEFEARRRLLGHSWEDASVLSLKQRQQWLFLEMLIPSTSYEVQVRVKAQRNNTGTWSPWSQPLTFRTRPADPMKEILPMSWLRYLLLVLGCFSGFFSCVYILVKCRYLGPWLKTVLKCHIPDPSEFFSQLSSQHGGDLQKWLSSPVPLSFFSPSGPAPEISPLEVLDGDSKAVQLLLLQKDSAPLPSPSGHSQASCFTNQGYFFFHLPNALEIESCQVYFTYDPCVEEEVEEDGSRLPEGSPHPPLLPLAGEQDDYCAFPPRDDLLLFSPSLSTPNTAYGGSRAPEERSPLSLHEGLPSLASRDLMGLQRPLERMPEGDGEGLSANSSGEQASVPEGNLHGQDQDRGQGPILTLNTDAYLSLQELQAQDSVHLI
T1 sequence (looked up) 2: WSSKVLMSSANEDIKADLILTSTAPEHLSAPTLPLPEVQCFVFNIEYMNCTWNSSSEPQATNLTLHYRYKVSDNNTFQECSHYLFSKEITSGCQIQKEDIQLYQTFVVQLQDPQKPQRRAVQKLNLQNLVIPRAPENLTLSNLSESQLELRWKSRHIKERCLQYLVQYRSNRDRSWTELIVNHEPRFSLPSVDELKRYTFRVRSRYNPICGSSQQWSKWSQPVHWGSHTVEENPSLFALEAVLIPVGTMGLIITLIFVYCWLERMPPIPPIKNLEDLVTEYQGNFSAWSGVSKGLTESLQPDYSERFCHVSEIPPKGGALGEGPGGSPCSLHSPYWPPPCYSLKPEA
As to the kind of experiment: cell-based or functional assay.

The target in test [2] is T2, mouse IL-2 receptor βγc heterodimer (mIL-2Rβγc), soluble (mouse, UniProt P16297 27-240; P34902 23-263, biotin on the C-terminal biotin acceptor peptide).
T2 construct: extracellular domain; also called MmIL-2Rβγc; mIL-2Rβνc
T2 sequence 1: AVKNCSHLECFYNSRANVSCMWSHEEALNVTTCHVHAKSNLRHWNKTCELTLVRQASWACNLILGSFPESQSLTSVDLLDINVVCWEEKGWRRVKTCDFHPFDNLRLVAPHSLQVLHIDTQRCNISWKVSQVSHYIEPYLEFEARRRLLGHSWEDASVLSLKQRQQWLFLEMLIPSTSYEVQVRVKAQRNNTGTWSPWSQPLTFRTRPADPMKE
T2 sequence 2: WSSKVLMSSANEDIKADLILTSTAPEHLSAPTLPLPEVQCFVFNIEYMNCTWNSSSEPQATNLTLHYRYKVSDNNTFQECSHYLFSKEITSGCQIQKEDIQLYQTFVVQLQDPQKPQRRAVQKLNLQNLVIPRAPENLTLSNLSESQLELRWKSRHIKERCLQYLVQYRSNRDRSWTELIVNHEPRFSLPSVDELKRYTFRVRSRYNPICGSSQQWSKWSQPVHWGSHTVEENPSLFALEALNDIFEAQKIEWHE
The experiment in a line: SPR, equilibrium titration; IL-2Rγ on streptavidin chip, saturating IL-2Rβ in solution. The procedure: (§1) Less than 100 response units (RU) of each ligand was immobilized to minimize mass transfer effects. […] Surface regeneration for all interactions was conducted using 15 s exposure to 1 M MgCl2 in 10 mM sodium acetate pH 5.5. SPR experiments were carried out in HBS-P+ buffer (GE Healthcare) supplemented with 0.2% bovine serum albumin (BSA) at 25° C. and all binding studies were performed at a flow rate of […] to prevent analyte rebinding. Data was visualized and processed using the Biacore T100 evaluation software version 2.0 (GE Healthcare). Equilibrium titration curve fitting and equilibrium binding dissociation (KD) value determination was implemented using GraphPad Prism assuming all binding interactions to be first order. Biolayer interferometry: binding data were collected in a Octet RED96 (ForteBio, Menlo Park, Calif.) and processed using the instrument's integrated software using a 1:1 binding model. […] Analyte proteins were diluted from concentrated stocks into binding buffer. After baseline measurement in binding buffer alone, the binding kinetics were monitored by dipping the biosensors in wells containing 100 nM of the designed protein (association) and then dipping the sensors back into baseline wells (dissociation).
In general terms: Surface plasmon resonance follows binding to a sensor surface in real time, without labels.

Test [3] has as its target T3, mouse IL-2 receptor β subunit (mIL-2Rβ) (mouse, UniProt P16297 27-240, biotin on the C-terminal biotin acceptor peptide).
T3 construct: extracellular domain; Biotinylated form for SPR; also called MmIL-2Rβ; murine IL-2Rβ
T3 sequence: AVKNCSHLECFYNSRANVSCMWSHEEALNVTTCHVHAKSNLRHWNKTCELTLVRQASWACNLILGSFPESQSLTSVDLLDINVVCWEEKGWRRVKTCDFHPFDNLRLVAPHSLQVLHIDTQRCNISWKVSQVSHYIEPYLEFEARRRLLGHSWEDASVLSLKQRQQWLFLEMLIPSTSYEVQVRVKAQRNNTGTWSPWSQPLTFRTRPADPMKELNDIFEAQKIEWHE
The experiment in a line: SPR, equilibrium titration; biotinylated IL-2Rβ on streptavidin chip. The procedure:
as §1

The Kd is the equilibrium constant for the complex coming apart.

B1: G2_neo2_40_1F_seq26 (designed binder)
chain: TKKKYQLLIEHALLDALMILNLWSESNEKLNRIITTMQSWIFTGTYDPDKAEELEKLAKEIEDEARERGIDTEDYMSNLRVILKELS
B1: the “EC50 (CD25+) pSTAT5, murine T (CTLL-2, CD25+) cells” value (from here on “EC50 (CD25+) pSTAT5, murine T”) in test [1] is 1.06 nM. In test [2], this molecule gave a Kd of 27.8 nM.

B2: G2_neo2_40_1F_seq16 (designed binder)
chain: TKKKIQLLVEHALLDALMILNLSSKSNEKLNRIITTMQSWIFNGTIDPDRARELAKLVEEIRDEMEKNGIDTEDYVSNLKVILEELA
In the case of B2, in test [1], the “EC50 (CD25+) pSTAT5, murine T” value stood at 2.2 nM. The same molecule came in with an equilibrium dissociation constant (Kd) in test [2] of 71.5 nM.

B3: G2_neo2_40_1F_dsn29 (designed binder)
chain: EDYYSNLKVILEELAREMERNGLSDKAEEWRQWKKIVERIRQIRSNNSDLNEAKELLNRLITYIQSQIFEISERIRETDQEKKEESWKKWQLLLEHALLDVLMLLND
notes: E. coli, N-terminal 6xHis tag and thrombin site
Turning to B3, in test [1], the “EC50 (CD25+) pSTAT5, murine T” value stood at 0.48 nM. In test [2], binding was characterised by a dissociation constant (Kd) of 38.2 nM.

B4: G2_neo2_40_1F_seq27 (designed binder)
chain: TKKKAQLLAEHALLDALMLLNLSSESNERLNRIITWLQSIIFTGTYDPDMVKEAVKLADEIEDEMRKRGIDTEDYVSNLRVILQELA
Take B4: the “EC50 (CD25+) pSTAT5, murine T” value in test [1] was 0.24 nM. This molecule also had an equilibrium dissociation constant (Kd) in test [2] of 13.6 nM.

B5: G2_neo2_40_1F_seq12 (designed binder)
chain: TEKKLQLLVEHALLDALMILNLWSESNEKLNRIITTMQSWIFTGRIDPDKAEELAKLVEELREEARERGIDTEDYVSNLKVILKELS
With B5, the “EC50 (CD25+) pSTAT5, murine T” value in test [1] was determined as 1.74 nM. In test [2], this molecule gave a Kd of 39.1 nM.

B6: G2_neo2_40_1F_seq04 (designed binder)
chain: TTKKIQLLVEHALLDALMILNLSSESNEKLNRIITTLQSWIFRGEIDPDRARELAKLLEEIREEMRKRGIDTEDYVSNMIVIIRELA
As to B6, in test [1], the “EC50 (CD25+) pSTAT5, murine T” value amounted to 1.95 nM. For the same molecule, the equilibrium dissociation constant (Kd) in test [2] worked out at 80 nM.

B7: G2_neo2_40_1F_dsn30 (designed binder)
chain: PEKKRQLLLEHILLDALMLLNLLETNPQNTESKFEDYISNAEVIAEELAKLMESLGLSDEAEKFKKIKQWLREVWRIWSSTNWSTLEDKARELLNRIITTIQSQIFY
notes: as for B3
For B7, the “EC50 (CD25+) pSTAT5, murine T” value in test [1] was 7.61 nM. Besides, the Kd in test [2] is 925 nM.

B8: G1_neo2_40_1F_H1 (designed binder)
chain: STKKTQLLIEHALLDALDMSRNLPEPNEKLSRIITTMQSWIFTGKIDGDGAQQLAKEVEELEQEHEKRGEDVEDEASNLKVILLELA
B8: the “EC50 (CD25+) pSTAT5, murine T” value in test [1] came out at 37.4 nM. The values for the Kd in test [3] and in test [2] were 6800 nM and 2650 nM, respectively.

B9: G1_neo2_40_1F_H3 (designed binder)
chain: STKKTQLLIEHALLDALNMRKKLPEPNEKLSRIITDMQSWIFTGKIDGDGAQQLAKEVEELEQEHEKRGGDVEDYASNLKVILLELA
On to B9, for which the “EC50 (CD25+) pSTAT5, murine T” value in test [1] was 35.2 nM. Besides, the binding result in test [3] was “no binding”. In test [2], binding was put at a Kd of 3830 nM.

B10: G1_neo2_40_1F_H4 (designed binder)
chain: STKKTQLLLEHALLDALHMSRELPEPNEKLNRIITDMQSWIFTGKIDGDGAQDLAKEVEELEQEHEKRGGDVEDYASNLKVILLELA
Take B10: the “EC50 (CD25+) pSTAT5, murine T” value in test [1] worked out at 0.93 nM. For the same molecule, the equilibrium dissociation constant (Kd) in test [3] amounted to 10100 nM; in test [2], 392 nM.

B11: G1_neo2_40_1F_H2 (designed binder)
chain: STKKTQLLLEHALLDALHMRRNLPEPNEKLSRIITTMQSWIFTGKIDGDGAQELAKEVEELEQEHEKRGRDVEDDASNLKVILLELA
On to B11, for which the “EC50 (CD25+) pSTAT5, murine T” value in test [1] was 9.38 nM. Besides, the Kd in test [3] was found to be 68300 nM; in test [2] it was 964 nM.

B12: G2_neo2_40_1F_dsn40 (designed binder)
chain: PEKKRQLLAEHALLDALMILNIIRTNSDNTESKLEDYISNLKVILEEIARLMESLGLSDEAEKAKEAMRLADKAGSTASEEEKKEAMNRVITWAQSWIFN
notes: as for B3
For B12, the “EC50 (CD25+) pSTAT5, murine T” value in test [1] stood at 0.5 nM. The affinity in test [2], expressed as Kd, was 69.2 nM.
